Data taken from patent publication US20230348572A1 (ROSALIND FRANKLIN INSTITUTE, published 2023).
Numbering of substitutions follows the chain as printed. Read-outs that look alike come from different tables or passages of the source.

B1: NbRBD_H11-H4 (VHH)
VHH: QVQLVESGGGLMQAGGSLRLSCAVSGRTFSTAAMGWFRQAPGKEREFVAAIRWSGGSAYYADSVKGRFTISRDKAKNTVYLQMNSLKYEDTAVYYCAQTHYVSYLLSDYATWPYDYWGQGTQVTVSS
notes: also called nanobody H11-H4
B2: NbRBD_H11-D4 (VHH)
VHH: B1 VHH with Q98R, H100E, Y101N, S103R, Y104S
notes: also called nanobody H11-D4

What was measured:
[1] = target: T1, SARS-CoV-2 spike glycoprotein ectodomain (prefusion-stabilized, trimeric) (SARS-CoV-2, UniProt P0DTC2 14-1208); assay: ITC, Spike in the cell, H11-H4 in the syringe
T1 construct: range 1-1208; also called spike protein; Spike ectodomain

[2] = target: T1, SARS-CoV-2 spike glycoprotein …
[3] = target: T1, SARS-CoV-2 spike glycoprotein …; assay: ITC, nanobody titrated into trimeric Spike, 1:1 nanobody:monomer
[4] = target: T1, SARS-CoV-2 spike glycoprotein …; remark: listed apart in the source

Binder	ΔH [1] [kJmol-1]	ΔS [1] [Jmol-1K-1]	ΔH [2] [kJmol-1]	ΔS [2] [Jmol-1K-1]	Kd [3] [nM]	ΔH [4] [kJmol-1]	ΔS [4] [Jmol-1K-1]
B1	-73	-103	-74	-107	44		
B2					79	-81.2	-136
